Reference: patent US11667697 (VANDERBILT UNIVERSITY, dated 2023)

T1: VACV H3 protein (vaccinia virus, UniProt P07240 1-278)
T1 sequence: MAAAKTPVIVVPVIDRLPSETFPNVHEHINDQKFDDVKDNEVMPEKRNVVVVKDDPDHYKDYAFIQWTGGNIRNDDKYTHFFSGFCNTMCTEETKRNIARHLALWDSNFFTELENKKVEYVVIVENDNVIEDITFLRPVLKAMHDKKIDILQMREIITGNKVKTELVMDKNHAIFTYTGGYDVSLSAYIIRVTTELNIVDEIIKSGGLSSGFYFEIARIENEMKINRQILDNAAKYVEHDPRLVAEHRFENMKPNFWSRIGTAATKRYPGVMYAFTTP

T2: VACV D8 protein (vaccinia virus, UniProt P04195 1-261)
T2 sequence: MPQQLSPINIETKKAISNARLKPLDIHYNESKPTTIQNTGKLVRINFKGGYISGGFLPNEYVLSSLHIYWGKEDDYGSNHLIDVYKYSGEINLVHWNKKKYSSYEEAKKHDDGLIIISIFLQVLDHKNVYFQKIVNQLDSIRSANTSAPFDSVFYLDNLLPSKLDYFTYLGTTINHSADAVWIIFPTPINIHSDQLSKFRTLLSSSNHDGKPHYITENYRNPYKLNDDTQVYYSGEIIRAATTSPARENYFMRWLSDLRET

T3: VACV L1 protein (vaccinia virus, UniProt P07612 1-185)
T3 sequence: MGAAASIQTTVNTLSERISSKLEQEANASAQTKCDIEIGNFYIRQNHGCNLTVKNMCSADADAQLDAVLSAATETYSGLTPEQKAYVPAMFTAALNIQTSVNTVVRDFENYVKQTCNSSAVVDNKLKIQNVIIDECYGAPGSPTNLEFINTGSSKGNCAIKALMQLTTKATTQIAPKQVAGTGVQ


Legend:
VACV H3 protein [1] = target: T1, VACV H3 protein; test: lysate ELISA
VACV H3 protein [2] = target: T1, VACV H3 protein; test: cell-based or functional assay
VACV H3 protein [3] = target: T1, VACV H3 protein; test: purified antigen ELISA
VACV D8 protein [4] = target: T2, VACV D8 protein; test: lysate ELISA
VACV D8 protein [5] = target: T2, VACV D8 protein; test: cell-based or functional assay
VACV D8 protein [6] = target: T2, VACV D8 protein; test: purified antigen ELISA
VACV L1 protein [7] = target: T3, VACV L1 protein; test: cell-based or functional assay
VACV L1 protein [8] = target: T3, VACV L1 protein; test: purified antigen ELISA
VACV L1 protein [9] = target: T3, VACV L1 protein; test: lysate ELISA
VACV B5 protein [10] = target: T4, VACV B5 protein (vaccinia virus, UniProt Q01227 20-275); test: lysate ELISA
MPXV ortholog of B5 = MPXV ortholog of B5 (monkeypox virus); test: lysate ELISA
CPXV ortholog of B5 [11] = target: CPXV ortholog of B5 (cowpox virus); test: lysate ELISA
VACV B5 protein [12] = target: T4, VACV B5 protein; test: cell-based or functional assay
CPXV ortholog of B5 [13] = target: CPXV ortholog of B5 (cowpox virus); test: cell-based or functional assay
VARV ortholog of B5 = VARV ortholog of B5 (variola virus); test: purified antigen ELISA
VACV B5 protein [14] = target: T4, VACV B5 protein; test: purified antigen ELISA
VACV D8 protein [15] = target: T2, VACV D8 protein; test: antigen ELISA/array/BLI

Row | Binder | EC50 (VACV H3 protein [1]) | PRNT Emax, VACV MV+C' (VACV H3 protein [2]) | PRNT IC50, VACV MV+C' (VACV H3 protein [2]) | EC50 (VACV H3 protein [3]) | EC50 (VACV D8 protein [4]) | PRNT Emax, VACV MV+C' (VACV D8 protein [5]) | PRNT IC50, VACV MV+C' (VACV D8 protein [5]) | EC50 (VACV D8 protein [6]) | further results
1 | VACV-314 (antibody, V domains shown, human IgG3, anti-H3) VH: QVQLVQSGPGLVKPSETLSLTCTVSGGSISSYYWSWIRQPPGKGLEYIGHIYYSGGTKYNPSLRSRVTISVDTSKNQFSLKLTSVTAADTAVYYCARLAGRKPDADSWGQGTLVTVSS VL: QPVLTQEPSLTVSPGGTVTLTCASSTGAVTSGFFPNWLQQKPGQAPRALIYSTNNKHSWTPARFSGSLLGGKAALTLSGVQPEDEAEYYCLLYYGGVVVFGGGTKLTVL | 0.003 µg/mL | 74% | 0.1 µg/mL | 0.1 µg/mL | – | – | – | – | –
2 | VACV-315 (antibody, V domains shown, human IgG1, anti-H3) VH: EVQLLESGGGLVQPGGSLKLSCAASGFIFSNYAMGWVRQAPGKGLEWVSALSASDGVTSYADSVKGRFTISRDNSKNTMYLQMNRLRTEDTAIYFCAKGRARVNNIYRYFDHWGQGTLVTVSS VL: QSVLTQPASVSGSPGQSITISCTGTSSDVGAYTFVSWYQHHPGKAPKLIIYEVSNRPSGVSDRFSGSKSGNTASLTISGLQAEDEADYYCNSYTTTSPWVFGGGTQLTVL | 0.002 µg/mL | 72% | 2.2 µg/mL | 0.2 µg/mL | – | – | – | – | –
3 | VACV-128 (antibody, V domains shown, human IgG1, anti-D8) VH: EVQLVQSGAEVKKPGATVKISCKVSGYTFTDYYMHWVQQAPGKGLKWMGLLDPLDGETIYSEKFQGKVTITADTSTDTAYMELSSLRSEDTAVYYCARELTGYLNYWGQGTLVTVSS VL: DIQMTQSPSSLSASVGDRVTITCRASPGICNYLAWYQHKPGKVPKLLIYAASTLQSGVPSRFTGVGSGTNFTLTINNLPPENVATYYCQKYNSAPHTFGQGTKVDIK | – | – | – | – | 0.3 µg/mL | 86% | 0.5 µg/mL | 1.1 µg/mL | –
4 | MPXV-79 (antibody, V domains shown, human IgG1, anti-H3) VH: QVQLVQSGAEVKKPGASVKVSCKASGYSFRSNGISWVRQAPGQGFEWLGWIAAYNGDTKYVQKFQGRLTMTTDTSTDTAYMELWSLRSDDTAVYYCARDPKLGRKGSAFDIWGQGTLVIVSS VL: EIVLTQSPATLSLSPGGRATLSCRASQSVGNYLTWYQQKPGQAPRLLIFDGSTRATGIPARFSGSGSGTDFTLTISSLEPEDFAVYYCLQRSDLYTFGQGTKVDIK | 0.004 µg/mL | 62% | 4.7 µg/mL | 0.06 µg/mL | – | – | – | – | –
5 | MPXV-26 (antibody, V domains shown, human IgG1, anti-L1) VH: QVQLVQSGGGLIQPGGSLRLSCVVSGFNVATNYMSWVRQAPGKGLEWVSVIYSGGSTYYADSVKGRFTISRDNSKNTVFLQMNSLRPEDTAAYYCAKGGGLGLDYWGQGTLVTVSS VL: QSALTQPPSASGSPGQSVTITCTGSSSDVGGYNYVSWYQQHPGKAPKVVIYEVNKRPSGVPHRFSGSKSGNTASLTVSGLQAEDEADYYCSSYAGTETVAFGGGTKLTVL | – | – | – | – | – | – | – | – | PRNT Emax, VACV MV (VACV L1 protein [7]): 95%; PRNT Emax, VACV MV+C' (VACV L1 protein [7]): 80%; PRNT IC50, VACV MV (VACV L1 protein [7]): 0.3 µg/mL; PRNT IC50, VACV MV+C' (VACV L1 protein [7]): 0.7 µg/mL; EC50 (VACV L1 protein [8]): 0.05 µg/mL
6 | MPXV-87 (antibody, V domains shown, human IgG1, anti-L1) V domain 1: QVQLVQSGAEVKKPGASVKVSCKASGYTFTSHGIIWVRQAPGQGLEWMGWISVYNDNTNSAQKFQDRVTMTTATSTSTAYMELRSLRSDDTAVYYCARSSSGPRYYYYGMDVWGQGTTSP V domain 2: QSVVTQPPSVSGAPGQRVTISCTGSSSNIGAGYAVHWYYQLPGIAPKLLIFGNNNRPSGVPDRFSGSKSGTSASLAITGLQAEDEADYYCQSYDSSLSGWVFGGGTQVTVL | – | – | – | – | – | – | – | – | EC50 (VACV L1 protein [9]): 0.01 µg/mL; PRNT Emax, VACV MV (VACV L1 protein [7]): 61%; PRNT Emax, VACV MV+C' (VACV L1 protein [7]): 72%; PRNT IC50, VACV MV (VACV L1 protein [7]): 5 µg/mL; PRNT IC50, VACV MV+C' (VACV L1 protein [7]): 0.8 µg/mL; EC50 (VACV L1 protein [8]): 0.3 µg/mL
7 | VACV-249 (antibody, V domains shown, human IgG1, anti-D8) VH: QVQLVESGPGLVKPSQTLSLTCTVSGGSISRGIYYWSWIRQPAGKGLEWIGRIYTSGSTNYNPSLKSRVTISVDTSKNQFSLKLSSVTAADTAVYYCARDGWYGWYLDLWGRGTLVTVSS VL: EIVMTQSPATLSVSPGERATLSCRASQSVSSDLAWYQQKPGQAPRLLIYGASTRATGIPARFSGSGSGTEFTLTISSLQSEDFAVYYCQQYNNWPGTFGGGTKVDIK | – | – | – | – | 0.3 µg/mL | 70% | 0.2 µg/mL | 2.8 µg/mL | –
8 | VACV-304 (antibody, V domains shown, human IgG1, anti-D8) VH: EVQLVESGGGLVQPGGSLRLSCVVSGFTFSNYWMSWVRQAPGKGLEWVANIKQDGSKKYYVDSVTGRFTISRDNAKNSLYLQMNSLRAEDTAVYYCATLNLELAVDAISEALKWGQGTLVTVSS VL: SYELTQPPSVSVSPGQTARITCSGDALPKQFAYWYQQKPGQAPVVMIYKDSERPSGIPERFSGSSSGTTVTLTISGVQAEDEADYYCQSVDNSGTYEVFGGGTQLTVL | – | – | – | – | 0.04 µg/mL | 69% | 0.02 µg/mL | 0.05 µg/mL | –
9 | MPXV-92 (antibody) chain 1: QVQLVESGPGLVKPSGTLSLTCAVSGGSISSSNWWSWVRQPPGKGLEWIGEIYHSGSTNYTPSLKSRVTISLDKSKNQFSLKLSSVTAADTAMYYCARNFYPGYLQYWGQGTLVTVSS chain 2: QSALTQPASVSGSPGQSITISCTGTISDVGGYNYVSWYQQHPGKAPKLMIYDVNKRPSGVSNRFSGSKSGNT | – | – | – | – | – | – | – | – | EC50 (VACV B5 protein [10]): 0.064 µg/mL; EC50 (MPXV ortholog of B5): 0.046 µg/mL; EC50 (CPXV ortholog of B5 [11]): 0.014 µg/mL; PRNT Emax, VACV EV+C' (VACV B5 protein [12]): 86%; PRNT IC50, VACV EV+C' (VACV B5 protein [12]): 0.08 µg/mL; PRNT IC50, CPXV EV+C' (CPXV ortholog of B5 [13]): 0.5 µg/mL; EC50 (VARV ortholog of B5): 1.2 µg/mL; EC50 (VACV B5 protein [14]): 0.7 µg/mL
10 | VACV-77 (antibody, V domains shown) VH: QVQLQESGPGLVKPSETLSLTCTVSGGSMSSYFWSWIRQPPGKGLEWIGYISYSGGTNYNPSLKSRVTISVDTSKNQFSLKLTSVTAADTAVYYCAREDRGSPDYWGQGTLVTVSS VL: QSVLTQPPSVSAAPGRKVTISCSGSSSNIGNNYVSWYQQLPGTAPKLLIYDNYKRPSGIPDRFSGSKSGTSATLGITGLQTGDEADYYCGTWDLSLSAGVFGGGTKLTVL | – | – | – | – | – | – | – | – | binding result (VACV D8 protein [15]): binds
